Experimental findings from patent US6361968 are described below.

One series addresses P16220. Description: thermal melt, homodimerization (FIG. 3).
Another series has as its target P05412. Description: thermal melt, homodimer (FIG. 4).
The nature of series [1]: CD thermal melts, homodimer.

B1: CREB (unmodified) (protein)
chain: MASSPALPTQPAEEAARKREVRLMKNREAARECRRKKKEYVKCLENRVAVLENQNKTLIEELKALKDLYCHKSD
With B1, in the series with P16220, the Tm result was “Tm=47 °C”.

B2: c-Jun (unmodified) (protein)
chain: PLSPIDMESQERIKAERKRMRNRIAASKCRKRKLERIARLEEKVKTLKAQNSELASTANMLREQVAQLKQKVMNHVNSGCQLMLTQQLQTF
For the protein B2, the Tm entry with P05412 is “homodimerization of unmodified c-Jun had a melting temperature of 29.4 °C”.

B3: C/EBP bZIP domain (GCN4-C/EBP chimeric protein) (protein)
chain: SEYQPSLFALNPMGFSPLDGSKSTNENVSASTSTAKPMVGQLIFDKFIKTEEDPGKAKKSVDKNSNEYRVRRERNNIAVRKSRDKAKQRNVETQQKVLELTSDNDRLRKRVEQLSRELDTLRGIFRQLPESSLVKAMGNCA
Turning to B3, in series [1], the “Tm decrease in 50 mM KCl against 150 mM KCl” value is “less stable by 4 °C in 50 mM KCl compared with 150 mM KCl”.
